*1 amine or outer side, *2 acyl side, *3 side chain or, on linkers, in order; H or OH if unused. Bridges are numbered along the chain shown (N, C = ends). Primed or numbered codes have the meaning given here. Where no end group is shown, it is not given here. [ ]: non-standard residue; d: D form. TATA = O=C(CC[*:1])N1CN(C(=O)CC[*:2])CN(C(=O)CC[*:3])C1; 1Nal = N[C@@H](Cc1cccc2ccccc12)C(=O)O; Glutaryl = O=C(CCCC(=O)[*:2])[*:1]; Hyp = O=C(O)[C@@H]1C[C@@H](O)CN1; hArg = N=C(N)NCCCC[C@H](N)C(=O)O; Cit = NC(=O)NCCC[C@H](N)C(=O)O; MMAE = monomethyl auristatin E; PABC′ = p-aminobenzylcarbamate; βAla = NCCC(=O)O; Sar = CNCC(=O)O
Experiments:
[1] = molecular target: T1, Nectin-4 on MDA-MB-468 cells (human, UniProt Q96NY8 32-510); assay: HCS assay on MDA-MB-468 cells, bound agent detected with fluorescent antibody to MMAE
T1 construct: whole, on cells; also called PVRL4; PVRL-4
T1 sequence (looked up): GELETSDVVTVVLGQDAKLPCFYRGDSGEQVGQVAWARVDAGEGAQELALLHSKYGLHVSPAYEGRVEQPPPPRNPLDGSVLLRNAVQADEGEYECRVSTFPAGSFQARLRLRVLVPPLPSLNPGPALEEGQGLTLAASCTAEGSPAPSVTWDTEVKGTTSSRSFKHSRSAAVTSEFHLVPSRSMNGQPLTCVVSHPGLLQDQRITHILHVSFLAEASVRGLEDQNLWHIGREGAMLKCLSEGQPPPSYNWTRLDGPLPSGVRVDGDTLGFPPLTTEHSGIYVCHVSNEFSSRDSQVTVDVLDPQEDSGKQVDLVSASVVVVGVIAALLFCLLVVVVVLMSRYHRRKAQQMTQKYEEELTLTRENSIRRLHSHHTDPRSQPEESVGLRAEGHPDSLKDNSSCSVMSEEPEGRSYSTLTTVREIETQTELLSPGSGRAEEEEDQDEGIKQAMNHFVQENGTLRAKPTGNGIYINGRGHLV
Protocol: HCS assay was used in Nectin-4 BDC binding study. Cells were incubated with test agent and then washed. Detection was by a fluorescent antibody to MMAE.

[2] = molecular target: T1, Nectin-4 on MDA-MB-468 cells; assay: column 'Historical Kd (nM)' of the HCS table; method of the historical value not stated

Binder {MMAE-PABC′-Cit-Val-Glutaryl-βAla}-[Sar][Sar][Sar][Sar][Sar][Sar][Sar][Sar][Sar][Sar]CP[1Nal][dD]CM[hArg]DWSTP[Hyp]WC (linker 11-15-25 via TATA, also called BT8009) [BCY8245 (MMAE-PABC-Cit-Val-Glutaryl-BCY8234)] has a Kd [1] of 3.52 nM and a Kd [2] of 5.18 nM.

Source: patent publication US20210269480A1 (published 2021)
